According to paper PMC11276676:
Values belong to the substance of their own block, whether it stands above or below them.

Tests used:
Test in all cases: AUC; sedimentation velocity, absorbance detection, 20 °C, 20 mM Hepes-NaOH with 1 mM TCEP, without (pH 6.79) or with (pH 6.87) 150 mM NaCl, 42,000 rpm, protein 1.30-1.53 and 2.73-5.98 µM; monomer to dimer
[1] = target: wild-type Helicobacter pylori adenylosuccinate synthetase (Helicobacter pylori (reference strain 26695)) (UniProt P56137)
[2] = target: Helicobacter pylori adenylosuccinate synthetase with His6-tag on the C-terminus (Helicobacter pylori (reference strain 26695)) (UniProt P56137)
[3] = target: Helicobacter pylori adenylosuccinate synthetase with His6-tag fused on its N-terminus (Helicobacter pylori (reference strain 26695)) (UniProt P56137)

- stoichiometry N [1]: 2
Substance: wild-type Helicobacter pylori adenylosuccinate synthetase (from UniProt P56137 1-411) (enzyme)

- stoichiometry N [2]: 2
Substance: Helicobacter pylori adenylosuccinate synthetase with His6-tag on the C-terminus (from UniProt P56137 1-411) (enzyme)

- stoichiometry N [3]: 2
Substance: Helicobacter pylori adenylosuccinate synthetase with His6-tag fused on its N-terminus (from UniProt P56137 1-411) (enzyme)
